Results taken from paper PMC7806768.

Biological target: R.CcoLI(D225N) mutant (Campylobacter coli)
Assay: SEC; Superdex 200 HR 10/30; samples 2.3 uM; 10 mM MES pH 6.0, 200 mM NaCl, 1 mM TCEP; size estimated against marker proteins (aldolase, conalbumin, chymotrypsinogen A, ribonuclease A)

Substance: R.CcoLI(D225N) mutant (enzyme)
- stoichiometry N: 2
